Laboratory results as given in US20120196803A1.

Biological target: GFRα1 receptor/IgG Fc fusion
Test: double sandwich ELISA, GFRα1/IgG Fc captured on plate

Substance	Bmax [A405/min]	Kd [nM]
An2-Rig-hGDNF (N-terminal Angiopep-2 fused to hGDNF^78-211 through a rigid (PAPAP) linker) (from UniProt P39905 78-211)	0.202	0.82
An2-hGDNF (N-terminal Angiopep-2 fused to hGDNF^78-211) (from UniProt P39905 78-211)	0.146	0.68
An2NT-hGDNF (N-terminal reversed sequence Angiopep-2 fused to hGDNF^78-211) (from UniProt P39905 78-211)	0.161	0.31
hGDNF-An2 (C-terminal Angiopep-2 fused to hGDNF^78-211) (from UniProt P39905 78-211)	0.155	0.53

These reach a lower Kd. Values come first.

Bmax [A405/min]	Kd [nM]	Substance
0.161	0.16	An2-Flex-hGDNF (N-terminal Angiopep-2 fused to hGDNF^78-211 through a flexible ((GGGGS)2) linker) (from UniProt P39905 78-211)
0.142	0.27	An2-Hel-hGDNF (N-terminal Angiopep-2 fused to hGDNF^78-211 through a helical (A(EAAAK)2A) linker) (from UniProt P39905 78-211)
0.155	0.24	GDNF (hGDNF^78-211) (from UniProt P39905 78-211) (ligand)
